The target in experiment [1] is T1, ErbB3 (Homo sapiens, UniProt P21860).
In experiment [2] the target is T1, ErbB3. Kind of experiment: cell-based or functional assay.
In experiment [3] the target is T1, ErbB3. In words: ErbB phosphorylation (Theranostics Health platform): ErbB3 activation (pErbB3). Format: cell-based. Also noted: endogenous in cells; host or cells: SCCHN cell lines (Cal27, FaDu, UNC7, SCC61 and others). The following applies: Cal27 cells, similar results in FaDu. How it is done:
ErbB phosphorylation was measured using the Theranostics Health platform.

Experiment [4] has as its target T1, ErbB3. Kind of experiment: ErbB3 phosphorylation ELISA, titration of purified NRG proteins on T47D cells. More on the design: endogenous in cells. Format: cell-based. On the procedure:
Genes encoding the full extracellular domains of each NRG gene and isoform (NRG1α, NRG1β, NRG2α, and NRG2β) were modified to encode a signal peptide at their 5′ end, in order to induce secretion, and a His-tag at their 3′ end. Constructs were transfected into HEK293 cells and conditioned media was treated with NaCl to a final concentration of 0.5 M. NRG-containing media was purified by NiNTA chromatography and eluted with stepwise increases in imidazole in a phosphate buffer containing 0.5 M NaCl. NRG-containing fractions were pooled and further purified by size-exclusion chromatography with a mobile phase consisting of a phosphate-based buffer with 0.5 M NaCl. Purified NRG proteins were titrated on T47D breast cancer cells (which naturally express all ErbB receptors) for 10 minutes at 37° C. ErbB3 phosphorylation was measured by ELISA.

The target in experiment [5] is T1, ErbB3. In words: cell-based or functional assay. The source holds these as a separate data set.

In turn, “NRG1β full extracellular domain, His-tagged (from UniProt Q02297 20-242) (ligand)” came in with an EC50 (read off the curve), ErbB3 phosphorylation in T47D cells (ELISA) [panel B] in the experiment with ErbB3 [1] of 1 nM. This molecule came in with a potency of ErbB3 phosphorylation relative to the other NRG isoforms, T47D cells in the experiment with ErbB3 [2] of 10 fold.
With “pertuzumab: anti-ErbB2 monoclonal antibody [reference compound]”, the “inhibiting or blocking EGF-stimulated activation of ErbB3” value with ErbB3 [3] (presence of EGF) was “neither pertuzumab nor 2C2-YTE were capable of inhibiting or blocking”. Also, the “activation of ErbB3” value in the experiment with ErbB3 [3] (presence of NRG) is “blocked activation”.

B1: NRG1β: purified His-tagged full extracellular domain of neuregulin isoform, recombinantly expressed by HEK293 cells (protein, UniProt Q02297 20-242, looked up)
extracellular domain: SGKKPESAAGSQSPALPPRLKEMKSQESAAGSKLVLRCETSSEYSSLRFKWFKNGNELNRKNKPQNIKIQKKPGKSELRINKASLADSGEYMCKVISKLGNDSASANITIVESNEIITGMPASTEGAYVSSESPIRISVSTEGANTSSSTSTSTTGTSHLVKCAEKEKTFCVNGGECFMVKDLSNPSRYLCKCQPGFTGARCTENVPMKVQNQEKAEELYQKR
modifications: extracellular domain His tag
notes: purified His-tagged full extracellular domain of neuregulin isoform, recombinantly expressed by HEK293 cells
With B1, in the experiment with ErbB3 [4], the “potency of ErbB3 activation relative to the other NRG isoforms” value is recorded as “approximately 10 fold”.

B2: NRG2β full extracellular domain, His-tagged (ligand, UniProt O14511 112-405, looked up, not shown: small tags and cut ends)
chain: CYSPSLKSVQDQAYKAPVVVEGKVQGLVPAGGSSSNSTREPPASGRVALVKVLDKWPLRSGGLQREQVISVGSCVPLERNQRYIFFLEPTEQPLVFKTAFAPLDTNGKNLKKEVGKILCTDCATRPKLKKMKSQTGQVGEKQSLKCEAAAGNPQPSYRWFKDGKELNRSRDIRIKYGNGRKNSRLQFNKVKVEDAGEYVCEAENILGKDTVRGRLYVNSVSTTLSSWSGHARKCNETAKSYCVNGGVCYYIEGINQLSCKCPNGFFGQRCLEKLPLRLYMPDPKQKAEELYQKR
For B2, the EC50 (read off the curve), ErbB3 phosphorylation in T47D cells (ELISA) [panel B] with ErbB3 [1] came to 7 nM.

B3: 2C2-YTE anti-HER3 antibody (antibody, human IgG1, V domains shown)
VH: EVQLLESGGGLVQPGGSLRLSCAASGFTFSYYYMQWVRQAPGKGLEWVSYIGSSGGVTNYADSVKGRFTISRDNSKNTLYLQMNSLRAEDTAVYYCARVGLGDAFDIWGQGTMVTVSS
VL: QSVLTQPPSASGTPGQRVTISCSGSLSNIGLNYVSWYQQLPGTAPKLLISRNNQRPSGVPDRFSGSKSGTSASLAISGLRSEDEADYYCAAWDDSPPGEAFGGGTKLTVL
As for B3, in the experiment with ErbB3 [5], the pY-H3 (VeraTag phosphorylated ErbB3), 4213 non-cancerous skin cell line, 2C2-YTE treatment is 0.6; the pY-H3 (VeraTag phosphorylated ErbB3), 4213 non-cancerous skin cell line, control IgG1 treatment (baseline for 2C2-YTE) amounted to 0.5; the pY-H3 (VeraTag phosphorylated ErbB3), CAL27 cells, 2C2-YTE treatment amounted to 0.6; the pY-H3 (VeraTag phosphorylated ErbB3), CAL27 cells, control IgG1 treatment (baseline for 2C2-YTE) worked out at 4.6. Further, in the experiment with ErbB3 [5], the pY-H3 (VeraTag phosphorylated ErbB3), SCC35 cells, 2C2-YTE treatment amounted to 0.4; the pY-H3 (VeraTag phosphorylated ErbB3), SCC35 cells, control IgG1 treatment (baseline for 2C2-YTE) stood at 1.1; the pY-H3 (VeraTag phosphorylated ErbB3), SCC61 cells, 2C2-YTE treatment came to 0.6; the pY-H3 (VeraTag phosphorylated ErbB3), SCC61 cells, control IgG1 treatment (baseline for 2C2-YTE) amounted to 6.1. Further, in the experiment with ErbB3 [5], the pY-H3 (VeraTag phosphorylated ErbB3), UNC7 cells, 2C2-YTE treatment is 0.4; the pY-H3 (VeraTag phosphorylated ErbB3), UNC7 cells, control IgG1 treatment (baseline for 2C2-YTE) is 3.5; the pY-H3 (VeraTag phosphorylated ErbB3), UNC10 cells, control IgG1/2C2-YTE (one value given) was found to be 0; the pY-H3 pharmacodynamic (PD) ratio, 4213 non-cancerous skin cell line came to 1. In the experiment with ErbB3 [5], the pY-H3 pharmacodynamic (PD) ratio, CAL27 cells was 7.5; the pY-H3 pharmacodynamic (PD) ratio, SCC35 cells amounted to 2.8; the pY-H3 pharmacodynamic (PD) ratio, SCC61 cells was determined as 10.6; the pY-H3 pharmacodynamic (PD) ratio, UNC7 cells was 8.4. For the same molecule, in the experiment with ErbB3 [5], the pY-H3 pharmacodynamic (PD) ratio, UNC10 cells is 0.

For the origin of these results see US20180171027A1 (Celldex Therapeutics, Inc., priority 2015, published 2018).
